Measurements from the domain aggregation screens of Martell et al. (2025).

Assay: soluble fraction after stress (log2 fold change); higher = more stays soluble; pooled small domains, quantitative proteomics
Conditions: stress: pH 4
Outline: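 How much of each domain stays soluble after acid stress, expressed as a fold change, is used to gauge aggregation propensity. Pooled custom libraries of small domains underwent pH 4 stress before high-throughput quantitative proteomics. A higher log2 value means more of the domain stayed soluble.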

Sequence	soluble fraction (log2)
HMNEIDDYDIQLLEYLSKGVSQEAMESVFKQAGITPNSKSTIEKRISKLKIYFKALNTTHLVSITKDLGL	-1.27
HMDNAILQELYDYYKEDPSLSQSELIISMLTRIQEAVGYVSKDVQEEVARLAGVNRGYVAAIIKNLPHL	-0.963
HMPLLELPDDFYPAWKPKTIYVQGQRIMLDGVAFEAKWWTQGDNPASGQADPGSSPWRTLTQEEIAKLLE	-0.56
HMIISPKKLEYRQRIINALGDRKMSLNELSKAMGYKGITTKLSFTVDDMIKSGVIEKVMVGAYAKLHIP	0.22
HMYTTHTQSELNEAARFNGRATYQKGIYYNESKKEHFKVVNGKYQALPNVKQVNGDSWIDKTGITHKG	0.202
HMKLTKPQEVFIQELLKGSSQYEAYLKAYPSKKTWKRNSIDTEASKLFKNAKIKQRYEELLYNIREE	-0.175
HMTKLPLLVELSRIIPTDTWVKKIKFSLGSVEFVGISKSASRLLPIVENSSYFHDTKFIGTIVT	-0.274
HMSGMEKLAIQEIEKEIKSFVKGDILIELTGKNRATAYVSEKNVGALIGKKGERINSIEKRLGVGIDVRPY	-0.275
HMTHSEYVGRHGIAATSLRPAGAATIDGSRVDVVTSGEYIEKGTPIEVMTVNGSTVRVKAVPQIP	0.08
HMTGEEVLIMLGEKMKLIRNYNGYSQRQIAEILKIERSTYASYETGRNRPDIFAVQRFAKIFNVSVDYIL	-0.877
HMSKIVPVAYSQFLKDVKNGNVSQVEIRGNNIKGINNNGSSFSTYAPNDLSLIDKLEKSNVEIIVMPLE	-0.232
HMDEFEEGVITYFNSEKGFGFIRESKTKQSVFVHSKQLSSPVQLNDKVKFIVNKGLKGLEATEVSVI	≥ 0.43
HMGAARRFEMSEGGSQKFWEVAVEGPALTVRFGKLGTAGTTQTKTLASAEAAAKEADKLVREKTKKGYAP	-0.596
HMGKSPLDALSAREKEVLTYITRGVSINDIAAVLYLSPKTVSTHKTNLMQKLGIENNADLILFGVNHGLND	-0.897
HMPMTRILFLPDDRTILQFDSAEPAEDLVSAVNAGRWLPPEPYRSGFGLGLPENRLRASRQGALVVVMLS	-1.19
HMNSHKIIDRLNQMITEKDLSEEMPAITEAFKNNERSAEDLKKYVAENLSKKLNAEEREKFVSLILQYRN	-0.338
HMTSTSVKYVNSSSGLNVRKGPSTSYDKVTTLVNGTKVTVISTNNGWSKITSGSITGYVSSQYLSSSS	-0.284
HMIYQEGMQVKYQGKEYVISEIQDYKTYKTIKLDDNEGYLNGFITGSEILSFRNESELDLEI	-0.785
HMGQVPPLTRRETEIARLVSRGLSNKEIASTLVISPRTAEGHVEHILDKLGFSSRTQIATWLNEQTRNGK	0.313

Sequence	soluble fraction (log2)
HMGSDLVAWAQTRIGRHPEEAADVIAALIDRHGEARVRAASRSLLARKFAHASDLRTAIDAAIG	0.0531
HMGGEEKALLFGDVDIREAGEITQRLEQAEIPYELRGDGSSIFVPRSRVMEARMMISADGLL	-0.901
HMLSDLTPGDLVVHATHGIGRFLGIRKLELEGMTKDYITIQYRGNENLYVPVTQMDLVSRYI	-0.975
HMGNFNDMLKYLRVREKMSQAELADKLGVSKSTVGMYELGKREPDFETLEAIADLFNVDMNFLLGK	-0.439
HMHRTRNAERTRAAVLKAAAEVLAERGTGASLARIAEVAGVSKSGLLHHFANREQLIVALLED	-0.462
HMAVDPSVLTRRERQALAWIARGLSNKEVARGLNLAESTVKVHVQSILRKLNLTSRVQAAVYAIEHGIDK	-0.0198
HMNTDVEKQKVFTALFDDYFRRNSMTSLEKQLFLTALKTNFQNAQKTVAKDHPYYATYSLIISAIENYR	-0.936
HMSFTSQSVLIEIVRGTTQLTPLAAAVGANKREVVLAVHRLKQRGLVVSAGLGQYAATEAGRAFLTAGREV	≥ 0.43
HMESVQWSVFPSAKYVTIISFDPTTSGGSATAKFKVSDEARSKGFRFRIEAAIGEGIMRSEMYVIEE	-0.0704
HMKQLRVLGIVKAGSILKNSDGSIEFVIEDSGKSLLVKYKGVIPDIFKDGVEAVVEGDLRGSVFNADKLF	-0.2
HMEISTEVPLRGGTISEEALEALNRLPGVTASNIDGKSISVDVADNAELRVSDINQVLAVHSPDTRV	-0.707
HMEQNHYEVLGVSRDAIPEEIRKAYFEYARKLHPDANPDPGAAEQFMRIQTAYDVLSNPDRRHEYDGLLPP	-0.249
HMYDKKVFRLLFILNQLDSRKKVSTGELAKEFNVSPRTVQRDIVLLNTTGFPIISLEKGYHSFMEGFSLK	-0.7
HMDPEIADAVNTIKKYLESHYSEVITRKKIEELVHLNQDHINREFKKQTGYTLMEYVQHYRILMAKKMLRV	-0.1
HMIMPSDATEAKLLGVLGNEPLHVDEIRNQAELPIEKVSAALALMELKGMVRQVGGMNYVAVR	-0.263
HMGRSARVQQAVHQAVRALLEENDGERSALSVPLVAERAGVNSSTIYRRWGDLPRLLAAVASN	0.0284
HMYRWSEEIFEKLRSDIMAALDLSREQNDEEIYRFIETEVEEYSQNNLLTLKEREQLEHLLFNSL	-1.12
HMAIWAVFYKNEPFNLKSFNSLTSYPGPKYKKTSFSNPGHALNLAKKLNLTFGTEDFQVVKLTQGTIV	0.00875
